Source: patent US20240117049A1 (Hoffmann-La Roche, published 2024)
Like-named read-outs stand apart in the source and are kept apart here. Blank lines part the entries; values can stand above or below the binder they belong to.

Tests used:
[1] = biological target: T1, biotinylated recombinant human FAP (human, UniProt Q12884 27-760, biotinylated); experiment: SPR (Biacore), biotinylated huFAP on CAP chip, Fab as analyte, 1:1 fit
T1 construct: the Biacore paragraphs only say biotinylated (recombinant) human FAP; also called biotinylated human FAP; recombinant huFAP

[2] = biological target: T1, biotinylated recombinant human FAP; experiment: SPR (Biacore), biotinylated recombinant FAP
[3] = biological target: T2, human Fibroblast Activation Protein (FAP) expressed on cells (human, UniProt Q12884 1-760); experiment: flow cytometry, FAP-transfected HEK cells
T2 construct: cell surface FAP on transfected HEK cells or NIH/3T3-huFAP clone 19 fibroblasts; also called huFAP; human FAP-transfected HEK cells

[4] = biological target: biotinylated recombinant cynomolgus FAP (cynomolgus, UniProt Q12884 27-760 (human entry), limits assumed, biotinylated); experiment: SPR (Biacore), biotinylated recombinant FAP
[5] = biological target: T3, human DPP-IV expressed on transfected HEK cells (human, UniProt P27487 1-766); experiment: flow cytometry, human DPPIV-transfected HEK cells
T3 construct: whole, on cells; also called dipeptidyl peptidase IV
T3 sequence (P27487 whole entry): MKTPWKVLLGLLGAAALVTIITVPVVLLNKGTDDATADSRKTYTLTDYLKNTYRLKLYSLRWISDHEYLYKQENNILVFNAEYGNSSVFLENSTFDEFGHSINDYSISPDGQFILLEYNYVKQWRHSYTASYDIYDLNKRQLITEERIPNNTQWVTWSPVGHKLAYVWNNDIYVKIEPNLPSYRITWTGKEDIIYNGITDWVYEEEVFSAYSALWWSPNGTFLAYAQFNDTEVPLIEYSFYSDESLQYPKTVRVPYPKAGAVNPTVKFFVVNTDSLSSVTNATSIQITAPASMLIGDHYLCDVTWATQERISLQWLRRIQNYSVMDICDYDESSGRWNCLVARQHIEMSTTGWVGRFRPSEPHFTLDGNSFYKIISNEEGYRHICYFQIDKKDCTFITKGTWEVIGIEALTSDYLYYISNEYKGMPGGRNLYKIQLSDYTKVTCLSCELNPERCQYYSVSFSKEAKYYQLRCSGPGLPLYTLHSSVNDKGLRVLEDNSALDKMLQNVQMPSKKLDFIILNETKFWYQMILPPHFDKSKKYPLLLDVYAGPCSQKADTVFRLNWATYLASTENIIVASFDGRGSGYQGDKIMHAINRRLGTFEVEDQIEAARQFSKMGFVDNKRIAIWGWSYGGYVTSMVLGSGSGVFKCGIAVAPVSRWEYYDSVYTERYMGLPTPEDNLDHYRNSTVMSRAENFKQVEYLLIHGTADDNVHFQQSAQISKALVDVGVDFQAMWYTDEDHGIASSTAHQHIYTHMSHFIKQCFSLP

[6] = biological target: T2, human Fibroblast Activation Protein …; experiment: flow cytometry, human FAP-transfected HEK cells
[7] = biological target: T4, cynomolgus FAP expressed on cells (cynomolgus); experiment: flow cytometry, FAP-transfected HEK cells
T4 construct: whole, on cells

human OX40 on cells [8] = biological target: T5, human OX40 on cells (human, UniProt P43489 29-277); experiment: cell-based or functional assay
T5 sequence: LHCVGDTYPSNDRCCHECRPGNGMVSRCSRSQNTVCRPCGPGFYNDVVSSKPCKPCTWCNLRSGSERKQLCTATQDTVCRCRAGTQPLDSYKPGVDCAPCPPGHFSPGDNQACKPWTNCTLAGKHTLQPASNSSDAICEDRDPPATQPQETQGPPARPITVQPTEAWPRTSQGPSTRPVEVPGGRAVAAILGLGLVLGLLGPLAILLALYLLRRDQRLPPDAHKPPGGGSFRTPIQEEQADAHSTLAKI

human OX40 on cells [9] = biological target: T5, human OX40 on cells; experiment: cell-based or functional assay; remark: listed apart in the source
human OX40 on cells [10] = biological target: T5, human OX40 on cells; experiment: cell-based or functional assay; remark: listed apart in the source
human OX40 on cells [11] = biological target: T5, human OX40 on cells; experiment: cell-based or functional assay; remark: listed apart in the source
[12] = biological target: T6, FcRn (biotinylated, coupled to streptavidin-sepharose); experiment: FcRn affinity chromatography, pH gradient, retention compared to standards
T6 construct: also called neonatal Fc receptor

human OX40 on cells [13] = biological target: T5, human OX40 on cells; experiment: flow cytometry, activated human CD4+ T cells
[14] = biological target: T2, human Fibroblast Activation Protein …; experiment: flow cytometry, NIH/3T3-huFAP clone 19 cells
[15] = biological target: T1, biotinylated recombinant human FAP; experiment: SPR, stressed against unstressed sample, normalised to anti-hu IgG capture
biotinylated human OX40 = biological target: T7, biotinylated human OX40 (human, UniProt P43489 29-214, limits assumed, biotinylated); experiment: as above
T7 sequence: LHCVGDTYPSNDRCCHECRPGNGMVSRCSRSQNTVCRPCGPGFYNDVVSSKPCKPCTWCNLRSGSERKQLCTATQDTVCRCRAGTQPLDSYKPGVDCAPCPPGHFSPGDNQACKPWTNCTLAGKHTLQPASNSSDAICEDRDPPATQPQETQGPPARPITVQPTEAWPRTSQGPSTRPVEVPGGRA

human OX40 on cells [16] = biological target: T5, human OX40 on cells; experiment: flow cytometry, activated human PBMC gated on CD8+ T cells (OX40 positive), FITC anti-human Fcγ secondary, MFI baseline corrected
human OX40 on cells [17] = biological target: T5, human OX40 on cells; experiment: cell-based or functional assay; remark: listed apart in the source
human OX40 on cells [18] = biological target: T5, human OX40 on cells; experiment: cell-based or functional assay; remark: listed apart in the source

B1: P1AD9438_Fab, anti-FAP clone 212 Fab (Fab, V domains shown)
VH: EVLLQQSGPELVKPGASVKIACKASGYTLTDYNMDWVRQSHGKSLEWIGDIYPNTGGTIYNQKFKGKATLTIDKSSSTAYMDLRSLTSEDTAVYYCTRFRGIHYAMDYWGQGTSVTVSS
VL: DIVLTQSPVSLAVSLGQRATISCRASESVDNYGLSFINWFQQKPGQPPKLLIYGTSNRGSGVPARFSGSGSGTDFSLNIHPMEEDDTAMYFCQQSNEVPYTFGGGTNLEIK
notes: Fab; also called 212 free Fab
- Kd [1]: < 0.01 nM
- koff [1]: < 1e-06 s⁻¹
- kon [1]: 1.06e+06 M⁻¹ s⁻¹
- Kd [2]: 0.12 nM

B4: P1AD9438, anti-FAP clone 212 as huIgG1 P329G LALA antibody (antibody, V domains shown)
VH: EVLLQQSGPELVKPGASVKIACKASGYTLTDYNMDWVRQSHGKSLEWIGDIYPNTGGTIYNQKFKGKATLTIDKSSSTAYMDLRSLTSEDTAVYYCTRFRGIHYAMDYWGQGTSVTVSS
VL: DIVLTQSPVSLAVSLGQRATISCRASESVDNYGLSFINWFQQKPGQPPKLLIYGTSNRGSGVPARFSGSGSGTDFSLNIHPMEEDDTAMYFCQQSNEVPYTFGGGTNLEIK
notes: human IgG1 with P329G, L234A, L235A; also called 212 IgG
- EC50 [6]: 0.118 µg/mL
- EC50 [3]: 0.12 µg/mL
- EC50 [7]: 0.3 µg/mL
- Kd [4]: 0.14 nM

B5: P1AF6455 OX40(CLC563) x FAP (1G1a_EPKSCS) (3 + 1) C-terminal crossfab fusion (bispecific antibody, human IgG1, kappa, L234A L235A)
heavy 1: not shown
heavy 2: not shown
light 1: not shown
light 2: EIVLTQSPATLSLSPGERATLSCRASESVDNYGLSFINWFQQKPGQAPRLLIYGTSNRGSGIPARFSGSGSGTDFTLTISSLEPEDFAVYFCQQSNEVPYTFGGGTKVEIKSSASTKGPSVFPLAPSSKSTSGGTAALGCLVKDYFPEPVTVSWNSGALTSGVHTFPAVLQSSGLYSLSSVVTVPSSSLGTQTYICNVNHKPSNTKVDKKVEPKSCS
notes: also called CLC-563, S-variant 3+1; C2
- EC50 of NFκB activation, HeLa_hOx40_NFkB_Luc1, w/ hu FAP+ fibroblasts (human OX40 on cells [8]): 0.2 nM
- EC50 of NFκB activation, HeLa_hOx40_NFkB_Luc1, w/o crosslinking (human OX40 on cells [8]): 0.8 nM
- EC50 of suppression of TGFβ-induced FoxP3 (FoxP3 MFI) on CD4+ CD25+ Treg cells, FAP-coated beads (human OX40 on cells [9]): 0.25 nM
- EC50 of increased CEACAM5 TCB mediated cytokine secretion of human PBMC with FAP+ fibroblasts (human OX40 on cells [10]): 0.058 nM
- EC50 of CD25 upregulation on CD4+ T cells, suboptimal TCR stimulation of human PBMC with FAP+ fibroblasts (human OX40 on cells [11]): 3 pM
- FcRn affinity (relative retention) [12]: -0.1
- EC50 (human OX40 on cells [13]): 1.47 nM
- EC50 [14]: 1.71 nM
- binding activity [%] after 2 weeks at pH 6.0/40°C [15]: 98%
- binding activity [%] after 2 weeks at pH 7.4/37°C [15]: 96%
- binding activity [%] after 2 weeks at pH 6.0/40°C (biotinylated human OX40): 100%
- binding activity [%] after 2 weeks at pH 7.4/37°C (biotinylated human OX40): 100%

B6: P1AF6454 OX40(CLC563) x FAP (1G1a_EPKSCD) (3 + 1) C-terminal crossfab fusion (bispecific antibody, human IgG1, kappa, L234A L235A)
heavy 1: not shown
heavy 2: not shown
light 1: not shown
light 2: EIVLTQSPATLSLSPGERATLSCRASESVDNYGLSFINWFQQKPGQAPRLLIYGTSNRGSGIPARFSGSGSGTDFTLTISSLEPEDFAVYFCQQSNEVPYTFGGGTKVEIKSSASTKGPSVFPLAPSSKSTSGGTAALGCLVKDYFPEPVTVSWNSGALTSGVHTFPAVLQSSGLYSLSSVVTVPSSSLGTQTYICNVNHKPSNTKVDKKVEPKSCD
notes: also called CLC-563, D-variant 3+1; 3+1 CLC563/H212-D
- EC50 of NFκB activation, HeLa_hOx40_NFkB_Luc1, w/ hu FAP+ fibroblasts (human OX40 on cells [8]): 0.2 nM
- EC50 of NFκB activation, HeLa_hOx40_NFkB_Luc1, w/o crosslinking (human OX40 on cells [8]): 1.9 nM
- EC50 of suppression of TGFβ-induced FoxP3 (FoxP3 MFI) on CD4+ CD25+ Treg cells, FAP-coated beads (human OX40 on cells [9]): 0.11 nM
- EC50 of increased CEACAM5 TCB mediated cytokine secretion of human PBMC with FAP+ fibroblasts (human OX40 on cells [10]): 0.144 nM
- EC50 of CD25 upregulation on CD4+ T cells, suboptimal TCR stimulation of human PBMC with FAP+ fibroblasts (human OX40 on cells [11]): 1 pM
- FcRn affinity (relative retention) [12]: -0.1
- EC50 (human OX40 on cells [13]): 1.64 nM
- EC50 [14]: 1.22 nM
- binding activity [%] after 2 weeks at pH 6.0/40°C [15]: 99%
- binding activity [%] after 2 weeks at pH 7.4/37°C [15]: 95%
- binding activity [%] after 2 weeks at pH 6.0/40°C (biotinylated human OX40): 100%
- binding activity [%] after 2 weeks at pH 7.4/37°C (biotinylated human OX40): 99%

B7: P1AE8874 OX40(CLC563) x FAP (1G1a) (3 + 1) C-terminal crossfab fusion (bispecific antibody, human IgG1, kappa, L234A L235A)
heavy 1: not shown
heavy 2: not shown
light 1: not shown
light 2: EIVLTQSPATLSLSPGERATLSCRASESVDNYGLSFINWFQQKPGQAPRLLIYGTSNRGSGIPARFSGSGSGTDFTLTISSLEPEDFAVYFCQQSNEVPYTFGGGTKVEIKSSASTKGPSVFPLAPSSKSTSGGTAALGCLVKDYFPEPVTVSWNSGALTSGVHTFPAVLQSSGLYSLSSVVTVPSSSLGTQTYICNVNHKPSNTKVDKKVEPKSC
notes: also called CLC-563 3+1
- EC50 (read off the curve) (human OX40 on cells [16]): ~3 nM
- AUC of CD25 upregulation compared to reference compound [%] (human OX40 on cells [17]): 100%
- EC50 of CD25 upregulation on CD4+ T cells, suboptimal TCR stimulation of human PBMC with FAP+ fibroblasts (human OX40 on cells [17]): 0.04 nM
- FcRn affinity (relative retention) [12]: -0.14
- EC50 (human OX40 on cells [13]): 3.62 nM
- EC50 of NFκB activation, HeLa_hOx40_NFkB_Luc1, w/ hu FAP+ fibroblasts (human OX40 on cells [18]): 0.24 nM
- EC50 of NFκB activation, HeLa_hOx40_NFkB_Luc1, w/o crosslinking (human OX40 on cells [18]): 0.79 nM
- EC50 [14]: 2.52 nM
- binding activity [%] after 2 weeks at pH 6.0/40°C [15]: > 90%
- binding activity [%] after 2 weeks at pH 7.4/37°C [15]: > 90%
- binding activity [%] after 2 weeks at pH 6.0/40°C (biotinylated human OX40): > 90%
- binding activity [%] after 2 weeks at pH 7.4/37°C (biotinylated human OX40): > 90%

B8: P1AE8871 OX40(CLC563) x FAP (1G1a) (2 + 1) C-terminal crossfab fusion (bispecific antibody, human IgG1, kappa, L234A L235A)
heavy 1: not shown
heavy 2: not shown
light 1: not shown
light 2: EIVLTQSPATLSLSPGERATLSCRASESVDNYGLSFINWFQQKPGQAPRLLIYGTSNRGSGIPARFSGSGSGTDFTLTISSLEPEDFAVYFCQQSNEVPYTFGGGTKVEIKSSASTKGPSVFPLAPSSKSTSGGTAALGCLVKDYFPEPVTVSWNSGALTSGVHTFPAVLQSSGLYSLSSVVTVPSSSLGTQTYICNVNHKPSNTKVDKKVEPKSC
notes: also called CLC-563 2+1
- EC50 (read off the curve) (human OX40 on cells [16]): ~2 nM
- AUC of CD25 upregulation compared to reference compound [%] (human OX40 on cells [17]): 99%
- EC50 of CD25 upregulation on CD4+ T cells, suboptimal TCR stimulation of human PBMC with FAP+ fibroblasts (human OX40 on cells [17]): 0.06 nM
- EC50 (human OX40 on cells [13]): 3.19 nM
- EC50 of NFκB activation, HeLa_hOx40_NFkB_Luc1, w/ hu FAP+ fibroblasts (human OX40 on cells [18]): 0.21 nM
- EC50 [14]: 2.51 nM

The remaining lines, values ahead:

- EC50 [3]: 2.8 µg/mL
- Kd [2]: 0.62 nM
- Kd [4]: 0.64 nM
B2: anti-FAP clone 212, C-terminal Fab fusion construct (Fc fusion)
chain 1: EVLLQQSGPELVKPGASVKIACKASGYTLTDYNMDWVRQSHGKSLEWIGDIYPNTGGTIYNQKFKGKATLTIDKSSSTAYMDLRSLTSEDTAVYYCTRFRGIHYAMDYWGQGTSVTVSS
chain 2: not shown

- binding result [5]: no binding (tested: 10 µg/ml)
B3: anti-human FAP clone 212, hybridoma-derived murine antibody (antibody, V domains shown)
VH: EVLLQQSGPELVKPGASVKIACKASGYTLTDYNMDWVRQSHGKSLEWIGDIYPNTGGTIYNQKFKGKATLTIDKSSSTAYMDLRSLTSEDTAVYYCTRFRGIHYAMDYWGQGTSVTVSS
VL: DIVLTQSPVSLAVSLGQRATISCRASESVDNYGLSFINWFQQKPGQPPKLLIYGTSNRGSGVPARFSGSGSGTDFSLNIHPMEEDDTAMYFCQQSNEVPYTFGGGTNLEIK
notes: mu IgG1

- EC50 [6]: 0.089 µg/mL
B9: anti-FAP antibody 4B9 (antibody, V domains shown)
VH: EVQLLESGGGLVQPGGSLRLSCAASGFTFSSYAMSWVRQAPGKGLEWVSAIIGSGASTYYADSVKGRFTISRDNSKNTLYLQMNSLRAEDTAVYYCAKGWFGGFNYWGQGTLVTVSS
VL: EIVLTQSPGTLSLSPGERATLSCRASQSVTSSYLAWYQQKPGQAPRLLINVGSRRATGIPDRFSGSGSGTDFTLTISRLEPEDFAVYYCQQGIMLPPTFGQGTKVEIK
notes: made as in WO 2012/020006; also called FAP clone 4B9; AlexaFluor647-labeled anti FAP antibody 4B9
